Patent publication US12099068B2, “Biomarkers for graft-versus-host disease” (Incyte Corporation, priority 2018, dated 2024)

B1: REN (protein, UniProt P00797 67-406, looked up)
Renin: LTLGNTTSSVILTNYMDTQYYGEIGIGTPPQTFKVVFDTGSSNVWVPSSKCSRLYTACVYHKLFDASDSSSYKHNGTELTLRYSTGTVSGFLSQDIITVGGITVTQMFGEVTEMPALPFMLAEFDGVVGMGFIEQAIGRVTPIFDNIISQGVLKEDVFSFYYNRDSENSQSLGGQIVLGGSDPQHYEGNFHYINLIKTGVWQIQMKGVSVGSSTLLCEDGCLALVDTGASYISGSTSSIEKLMEALGAKKRLFDYVVKCNEGPTLPDISFHLGGKEYTLTSADYVFQESYSSKKLCTLAIHAMDIPPPTGPTWALGATFIRKFYTEFDRRNNRIGFALAR
B2: LY9 (protein, UniProt Q9HBG7 48-655, looked up)
T-lymphocyte surface antigen …: KDSAPTVVSGILGGSVTLPLNISVDTEIENVIWIGPKNALAFARPKENVTIMVKSYLGRLDITKWSYSLCISNLTLNDAGSYKAQINQRNFEVTTEEEFTLFVYEQLQEPQVTMKSVKVSENFSCNITLMCSVKGAEKSVLYSWTPREPHASESNGGSILTVSRTPCDPDLPYICTAQNPVSQRSSLPVHVGQFCTDPGASRGGTTGETVVGVLGEPVTLPLALPACRDTEKVVWLFNTSIISKEREEAATADPLIKSRDPYKNRVWVSSQDCSLKISQLKIEDAGPYHAYVCSEASSVTSMTHVTLLIYRRLRKPKITWSLRHSEDGICRISLTCSVEDGGNTVMYTWTPLQKEAVVSQGESHLNVSWRSSENHPNLTCTASNPVSRSSHQFLSENICSGPERNTKLWIGLFLMVCLLCVGIFSWCIWKRKGRCSVPAFCSSQAEAPADTPEPTAGHTLYSVLSQGYEKLDTPLRPARQQPTPTSDSSSDSNLTTEEDEDRPEVHKPISGRYEVFDQVTQEGAGHDPAPEGQADYDPVTPYVTEVESVVGENTMYAQVFNLQGKTPVSQKEESSATIYCSIRKPQVVPPPQQNDLEIPESPTYENFT
B3: CD84 (protein, UniProt Q9UIB8 22-345, looked up)
SLAM family member 5: KDSEIFTVNGILGESVTFPVNIQEPRQVKIIAWTSKTSVAYVTPGDSETAPVVTVTHRNYYERIHALGPNYNLVISDLRMEDAGDYKADINTQADPYTTTKRYNLQIYRRLGKPKITQSLMASVNSTCNVTLTCSVEKEEKNVTYNWSPLGEEGNVLQIFQTPEDQELTYTCTAQNPVSNNSDSISARQLCADIAMGFRTHHTGLLSVLAMFFLLVLILSSVFLFRLFKRRQGRIFPEGSCLNTFTKNPYAASKKTIYTYIMASRNTQPAESRIYDEILQSKVLPSKEEPVNTVYSEVQFADKMGKASTQDSKPPGTSSYEIVI
B4: CD200R1 (protein, UniProt Q8TD46 25-348, looked up)
Cell surface glycoprotein …: EGAAQPNNSLMLQTSKENHALASSSLCMDEKQITQNYSKVLAEVNTSWPVKMATNAVLCCPPIALRNLIIITWEIILRGQPSCTKAYKKETNETKETNCTDERITWVSRPDQNSDLQIRTVAITHDGYYRCIMVTPDGNFHRGYHLQVLVTPEVTLFQNRNRTAVCKAVAGKPAAHISWIPEGDCATKQEYWSNGTVTVKSTCHWEVHNVSTVTCHVSHLTGNKSLYIELLPVPGAKKSAKLYIPYIILTIIILTIVGFIWLLKVNGCRKYKLNKTESTPVVEEDEMQPYASYTEKNNPLYDTTNKVKASEALQSEVDTDLHTL
B5: KAZALD1 (protein, UniProt Q96I82 31-304, looked up)
Kazal-type serine protease …: RPSPGPDYLRRGWMRLLAEGEGCAPCRPEECAAPRGCLAGRVRDACGCCWECANLEGQLCDLDPSAHFYGHCGEQLECRLDTGGDLSRGEVPEPLCACRSQSPLCGSDGHTYSQICRLQEAARARPDANLTVAHPGPCESGPQIVSHPYDTWNVTGQDVIFGCEVFAYPMASIEWRKDGLDIQLPGDDPHISVQFRGGPQRFEVTGWLQIQAVRPSDEGTYRCLGRNALGQVEAPASLTVLTPDQLNSTGIPQLRSLNLVPEEEAESEENDDYY
B6: STX8 (protein, UniProt Q9UNK0 1-236, looked up)
Syntaxin-8: MAPDPWFSTYDSTCQIAQEIAEKIQQRNQYERKGEKAPKLTVTIRALLQNLKEKIALLKDLLLRAVSTHQITQLEGDRRQNLLDDLVTRERLLLASFKNEGAEPDLIRSSLMSEEAKRGAPNPWLFEEPEETRGLGFDEIRQQQQKIIQEQDAGLDALSSIISRQKQMGQEIGNELDEQNEIIDDLANLVENTDEKLRNETRRVNMVDRKSASCGMIMVILLLLVAIVVVAVWPTN
B7: SERPINA9 (protein, UniProt Q86WD7 24-417, looked up)
Serpin A9: ANAPSAYPRPSSTKSTPASQVYSLNTDFAFRLYRRLVLETPSQNIFFSPVSVSTSLAMLSLGAHSVTKTQILQGLGFNLTHTPESAIHQGFQHLVHSLTVPSKDLTLKMGSALFVKKELQLQANFLGNVKRLYEAEVFSTDFSNPSIAQARINSHVKKKTQGKVVDIIQGLDLLTAMVLVNHIFFKAKWEKPFHPEYTRKNFPFLVGEQVTVHVPMMHQKEQFAFGVDTELNCFVLQMDYKGDAVAFFVLPSKGKMRQLEQALSARTLRKWSHSLQKRWIEVFIPRFSISASYNLETILPKMGIQNVFDKNADFSGIAKRDSLQVSKATHKAVLDVSEEGTEATAATTTKFIVRSKDGPSYFTVSFNRTFLMMITNKATDGILFLGKVENPTKS
B8: APLP1 (protein, UniProt P51693 39-650, looked up)
Amyloid beta precursor like …: SLAGGSPGAAEAPGSAQVAGLCGRLTLHRDLRTGRWEPDPQRSRRCLRDPQRVLEYCRQMYPELQIARVEQATQAIPMERWCGGSRSGSCAHPHHQVVPFRCLPGEFVSEALLVPEGCRFLHQERMDQCESSTRRHQEAQEACSSQGLILHGSGMLLPCGSDRFRGVEYVCCPPPGTPDPSGTAVGDPSTRSWPPGSRVEGAEDEEEEESFPQPVDDYFVEPPQAEEEEETVPPPSSHTLAVVGKVTPTPRPTDGVDIYFGMPGEISEHEGFLRAKMDLEERRMRQINEVMREWAMADNQSKNLPKADRQALNEHFQSILQTLEEQVSGERQRLVETHATRVIALINDQRRAALEGFLAALQADPPQAERVLLALRRYLRAEQKEQRHTLRHYQHVAAVDPEKAQQMRFQVHTHLQVIEERVNQSLGLLDQNPHLAQELRPQIQELLHSEHLGPSELEAPAPGGSSEDKGGLQPPDSKDDTPMTLPKGSTEQDAASPEKEKMNPLEQYERKVNASVPRGFPFHSSEIQRDELAPAGTGVSREAVSGLLIMGAGGGSLIVLSMLLLRRKKPYGAISHGVVEVDPMLTLEEQQLRELQRHGYENPTYRFLEERP
B9: GT (protein, UniProt P51161 2-128, looked up)
Gastrotropin: AFTGKFEMESEKNYDEFMKLLGISSDVIEKARNFKIVTEVQQDGQDFTWSQHYSGGHTMTNKFTVGKESNIQTMGGKTFKATVQMEGGKLVVNFPNYHQTSEIVGDKLVEVSTIGGVTYERVSKRLA
B10: THY 1 (protein, UniProt P04216 20-130, looked up)
Thy-1 membrane glycoprotein: QKVTSLTACLVDQSLRLDCRHENTSSSPIQYEFSLTRETKKHVLFGTVGVPEHTYRSRTNFTSKYNMKVLYLSAFTSKDEGTYTCALHHSGHSPPISSQNVTVLRDKLVKC
B11: ITGB5 (protein, UniProt P18084 24-799, looked up)
Integrin beta-5: GLNICTSGSATSCEECLLIHPKCAWCSKEDFGSPRSITSRCDLRANLVKNGCGGEIESPASSFHVLRSLPLSSKGSGSAGWDVIQMTPQEIAVNLRPGDKTTFQLQVRQVEDYPVDLYYLMDLSLSMKDDLDNIRSLGTKLAEEMRKLTSNFRLGFGSFVDKDISPFSYTAPRYQTNPCIGYKLFPNCVPSFGFRHLLPLTDRVDSFNEEVRKQRVSRNRDAPEGGFDAVLQAAVCKEKIGWRKDALHLLVFTTDDVPHIALDGKLGGLVQPHDGQCHLNEANEYTASNQMDYPSLALLGEKLAENNINLIFAVTKNHYMLYKNFTALIPGTTVEILDGDSKNIIQLIINAYNSIRSKVELSVWDQPEDLNLFFTATCQDGVSYPGQRKCEGLKIGDTASFEVSLEARSCPSRHTEHVFALRPVGFRDSLEVGVTYNCTCGCSVGLEPNSARCNGSGTYVCGLCECSPGYLGTRCECQDGENQSVYQNLCREAEGKPLCSGRGDCSCNQCSCFESEFGKIYGPFCECDNFSCARNKGVLCSGHGECHCGECKCHAGYIGDNCNCSTDISTCRGRDGQICSERGHCLCGQCQCTEPGAFGEMCEKCPTCPDACSTKRDCVECLLLHSGKPDNQTCHSLCRDEVITWVDTIVKDDQEAVLCFYKTAKDCVMMFTYVELPSGKSNLTVLREPECGNTPNAMTILLAVVGSILLVGLALLAIWKLLVTIHDRREFAKFQSERSRARYEMASNPLYRKPISTHTVDFTFNKFNKSYNGTVD
B12: NINJ1 (protein, UniProt Q92982 1-152, looked up)
Ninjurin-1: MDSGTEEYELNGGLPPGTPGSPDASPARWGWRHGPINVNHYASKKSAAESMLDIALLMANASQLKAVVEQGPSFAFYVPLVVLISISLVLQIGVGVLLIFLVKYDLNNPAKHAKLDFLNNLATGLVFIIVVVNIFITAFGVQKPLMDMAPQQ
B13: IRF9 (protein, UniProt Q00978 1-393, looked up)
Interferon regulatory factor 9: MASGRARCTRKLRNWVVEQVESGQFPGVCWDDTAKTMFRIPWKHAGKQDFREDQDAAFFKAWAIFKGKYKEGDTGGPAVWKTRLRCALNKSSEFKEVPERGRMDVAEPYKVYQLLPPGIVSGQPGTQKVPSKRQHSSVSSERKEEEDAMQNCTLSPSVLQDSLNNEEEGASGGAVHSDIGSSSSSSSPEPQEVTDTTEAPFQGDQRSLEFLLPPEPDYSLLLTFIYNGRVVGEAQVQSLDCRLVAEPSGSESSMEQVLFPKPGPLEPTQRLLSQLERGILVASNPRGLFVQRLCPIPISWNAPQAPPGPGPHLLPSNECVELFRTAYFCRDLVRYFQGLGPPPKFQVTLNFWEESHGSSHTPQNLITVKMEQAFARYLLEQTPEQQAAILSLV
B14: TACSTD2 (protein, UniProt P09758 27-323, looked up)
Tumor-associated calcium …: HTAAQDNCTCPTNKMTVCSPDGPGGRCQCRALGSGMAVDCSTLTSKCLLLKARMSAPKNARTLVRPSEHALVDNDGLYDPDCDPEGRFKARQCNQTSVCWCVNSVGVRRTDKGDLSLRCDELVRTHHILIDLRHRPTAGAFNHSDLDAELRRLFRERYRLHPKFVAAVHYEQPTIQIELRQNTSQKAAGDVDIGDAAYYFERDIKGESLFQGRGGLDLRVRGEPLQVERTLIYYLDEIPPKFSMKRLTAGLIAVIVVVVVALVAGMAVLVITNRRKSGKYKKVEIKELGELRKEPSL

system: plasma proteins; test: Plasma proteins modulated between baseline and day 28 in responders (CR, VGPR, PR; n = 19), Example 6 (Table 13); format: in vivo, human; conditions: plasma protein (OLINK NPX); responders (CR, VGPR, PR; n = 19); itacitinib 200 mg or 300 mg QD with corticosteroids; day 28 vs baseline
Outline: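 Plasma at baseline/screening and day 28 profiled for >1000 proteins by OLINK proximity extension assay, reported as NPX (log2). Steroid-naive and steroid-refractory patients pooled. Paired and unpaired t tests, ANOVA and Pearson correlation applied; significance at P<0.05.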

**Q.** How did the “Fold Change, Increased Expression from Baseline to Day 28” value (“Fold Change, Increased Expression” below) turn out when B1 was run?
**A.** 1.4074

**Q.** With B2 as the molecule, how does the “Fold Change, Decreased Expression from Baseline to Day 28” value (“Fold Change, Decreased Expression” below) read?
**A.** −1.4447

**Q.** For B3, which “Fold Change, Decreased Expression” value is on record?
**A.** −1.7208

**Q.** B4 was tested. Which “Fold Change, Decreased Expression” value did it give?
**A.** −1.4752

**Q.** For B5, which “Fold Change, Increased Expression” value is on record?
**A.** 1.2609

**Q.** Which “Fold Change, Decreased Expression” value does the source give for B6 here?
**A.** −1.4796

**Q.** How did the “Fold Change, Increased Expression” value turn out when B7 was run?
**A.** 1.5418

**Q.** With B8 as the molecule, how does the “Fold Change, Increased Expression” value read?
**A.** 1.4933

**Q.** For B9, which “Fold Change, Increased Expression” value is on record?
**A.** 1.8699

**Q.** Which “Fold Change, Decreased Expression” value does the source give for B10 here?
**A.** −1.2913

**Q.** How did the “Fold Change, Increased Expression” value turn out when B11 was run?
**A.** 1.229

**Q.** For B12, which “Fold Change, Increased Expression” value is on record?
**A.** 1.2723

**Q.** With B13 as the molecule, how does the “Fold Change, Decreased Expression” value read?
**A.** −1.4384

**Q.** With B14 as the molecule, how does the “Fold Change, Increased Expression” value read?
**A.** 1.1931
